Measurements taken from PMC3247260 (2011).

Assays:
Experiment in all cases: ITC
K48-linked diUb = K48-linked diUb (UniProt P0CG48 1-76, K48-linked (isopeptide linkage between the two Ub units))
linear diUb = linear diUb (UniProt P0CG48 1-76; P0CG48 1-76)
ubiquitin (Ub) = ubiquitin (Ub) (UniProt P0CG48 1-76)

Kd (K48-linked diUb): 1.8 µM
Kd (linear diUb): 2.3 µM
Kd (ubiquitin (Ub)): 21 µM
B1: tandem UBA domains of USP13 (USP13-UBA12, residues 652-776) (domain or fragment)
chain: DIDESSVMQLAEMGFPLEACRKAVYFTGNMGAEVAFNWIIVHMEEPDFAEPLTMPGYGGAASAGASVFGASGLDNQPPEEIVAIITSMGFQRNQAIQALRATNNNLERALDWIFSHPEFEEDSDF
